According to patent US20220331423A1 (WISTAR INSTITUTE OF ANATOMY AND BIOLOGY, published 2022):

Biological target: T1, HSV-1 glycoprotein D (gD), non-fused, expressed from AdC68gD (HSV-1, UniProt Q05059 26-394)
T1 construct: Complete gD open reading frame (from pRE4) expressed in AdC68gD-infected cells; Tested as detergent cell extract (ELISA) or on and within infected cells; also called native gD; non-fused gD
Assay: confocal microscopy of AdC68gD-infected B78-H1/3E5 (human HVEM-EGFP) cells stained with MAb to gD

T1 sequence (Q05059 26-394): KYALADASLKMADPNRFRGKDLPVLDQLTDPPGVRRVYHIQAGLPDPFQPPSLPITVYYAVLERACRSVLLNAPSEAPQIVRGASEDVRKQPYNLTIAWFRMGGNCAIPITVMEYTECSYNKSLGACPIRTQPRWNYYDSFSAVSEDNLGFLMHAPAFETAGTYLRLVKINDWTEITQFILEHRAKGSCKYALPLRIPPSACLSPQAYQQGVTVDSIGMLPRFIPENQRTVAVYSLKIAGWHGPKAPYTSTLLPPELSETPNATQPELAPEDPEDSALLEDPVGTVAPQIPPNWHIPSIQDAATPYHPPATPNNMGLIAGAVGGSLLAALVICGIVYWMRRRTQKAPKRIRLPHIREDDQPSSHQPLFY

B1: human HVEM fused to Enhanced Green Fluorescence Protein, expressed on B78H1/3E5 cells (receptor)
chain: LPSCKEDEYPVGSECCPKCSPGYRVKEACGELTGTVCEPCPPGTYIAHLNGLSKCLQCQMCDPAMGLRASRNCSRTENAVCGCSPGHFCIVQDGDHCAACRAYATSSPGQRVQKGGTESQDTLCQNCPPGTFSPNGTLEECQHQTKCSWLVTKAGAGTSSSHWVWWFLSGSLVIVIVCSTVGLIICVKRRKPRGDVVKVIVSVQRKRQEAEGEATVIEALQAPPDVTTVAVEETIPSFTGRSPNH
notes: whole, on cells; Mouse melanoma cells B78H1/3E5; also called HVEM-EGFP; HVEM on B78-H1/3E5 cells; not shown: Enhanced Green Fluorescence Protein (EGFP)
- binding result: binds
